± gives the standard deviation of the averaged measurements.
B1: library; a variant is named by its letters at N, in order (parent)
chain: GCUGUCACCGGUGCUUGGUACGUUAUAUUCAGCCGGUCUGAUGAGUCUNNNNNNAGACGAAACAGC

Columns and labels:
[1] = variants of: B1; assay: normalized RNA/DNA level without ligand (relative to sTRSVctl = 100) (log10 (% of sTRSVctl)); HEK293T overexpressing SLC46A1; higher = less ribozyme self-cleavage, higher mRNA level; details: without (6R,S)-folinic acid; ligand present: no
How it was run: (§1)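 Ribozyme switch library plasmids with mCherry reporters (eGFP in certain ligand experiments) went into HEK293T cells at 4 µg per 6-well well. Where ligand was used, it was applied 1 h before transfection, and total RNA was extracted with EDTA 72 h later for reverse transcription, amplification, barcoding and sequencing. RNA level is the RNA-to-DNA read ratio normalized to a spiked-in non-cleaving sequence or to the leading sequences, then scaled and log-transformed. Scaling was ×100 with log10, the leading set comprised 25 sequences, and the cutoff was ≥100 DNA reads.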

[2] = variants of: B1; assay: normalized RNA/DNA level with ligand (relative to sTRSVctl = 100) (log10 (% of sTRSVctl)); HEK293T overexpressing SLC46A1; ligand concentration (+) RNA-Seq: 6 mM; higher = less ribozyme self-cleavage, higher mRNA level; details: with (6R,S)-folinic acid; ligand present: yes
How it was run: as §1

| Variant | normalized RNA/DNA level without ligand (log10) [1] | normalized RNA/DNA level with ligand (log10) [2] |
| --- | --- | --- |
| CCGUAU | 2.016 ± 0.0098 | 2.022 ± 0.0084 |
| CCGUAA | 1.981 ± 0.016 | 1.98 ± 0.032 |
| CCGUAG | 1.93 ± 0.035 | 1.99 ± 0.022 |
| CCGUAC | 1.99 ± 0.019 | 2.014 ± 0.017 |
| CCGGAA | 2.005 ± 0.0036 | 2.01 ± 0.052 |
| CCGGAC | 2.05 ± 0.0016 | 2.042 ± 0.016 |
| CCGGAG | 1.931 ± 0.0037 | 2.024 ± 0.011 |
| CCGGAU | 2.017 ± 0.0056 | 2.05 ± 0.059 |
| ACGUAC | 2.018 ± 0.0052 | 2.02 ± 0.046 |
| ACGUAU | 1.943 ± 0.005 | 2.02 ± 0.008 |
| GCGCGA | 2.047 ± 0.011 | 2.052 ± 0.018 |
| GCGCGU | 2.055 ± 0.011 | 2.04 ± 0.056 |
| GCGCGC | 2.055 ± 0.0073 | 2.001 ± 0.011 |
| GCGCGG | 2.064 ± 0.0074 | 2.03 ± 0.031 |
| ACGGGG | 1.997 ± 0.018 | 2.065 ± 0.02 |
| ACGGGU | 1.989 ± 0.0096 | 2.04 ± 0.034 |
| ACGGGC | 2.097 ± 0.0034 | 2.09 ± 0.031 |
| UCGGCG | 1.997 ± 0.011 | 2.05 ± 0.046 |
| UCGGCA | 2.03 ± 0.029 | 2.04 ± 0.034 |
| GCGGUC | 2.06 ± 0.024 | 2.06 ± 0.056 |

| Variant | normalized RNA/DNA level without ligand (log10) [1] | normalized RNA/DNA level with ligand (log10) [2] |
| --- | --- | --- |
| GCGGUU | 2.07 ± 0.0088 | 2.02 ± 0.05 |
| GCGGUA | 1.98 ± 0.017 | 2.011 ± 0.014 |
| GCGGUG | 2.032 ± 0.0067 | 2.07 ± 0.07 |
| GCGCUG | 2.11 ± 0.022 | 2.1 ± 0.024 |
| GCGCUC | 2.05 ± 0.049 | 2.01 ± 0.043 |
| GCGCUU | 2.053 ± 0.018 | 2.048 ± 0.015 |
| UCGCCC | 2.05 ± 0.039 | 2.04 ± 0.033 |
| UCGCCG | 2.016 ± 0.0047 | 2.05 ± 0.032 |
| UCGCCU | 2.08 ± 0.043 | 2.082 ± 0.016 |
| GCGCCU | 2.1 ± 0.023 | 2.09 ± 0.047 |
| GCGCCC | 2.07 ± 0.023 | 2.04 ± 0.036 |
| GCGCCG | 2.059 ± 0.0092 | 2.046 ± 0.0097 |
| CCGCCG | 2.06 ± 0.024 | 2.08 ± 0.03 |
| CCGCCC | 2.07 ± 0.025 | 2.04 ± 0.073 |
| CCGCCU | 2.087 ± 0.0066 | 2.08 ± 0.03 |
| UCGUCC | 2.064 ± 0.0091 | 2.0551 ± 0.00048 |
| UCGUCA | 2.045 ± 0.013 | 2.03 ± 0.045 |
| UCGUCU | 2.02 ± 0.035 | 2.04 ± 0.09 |
| CCGGGU | 2.07 ± 0.036 | 2.05 ± 0.04 |
| CCGGGC | 2.102 ± 0.01 | 2.073 ± 0.0025 |

| Variant | normalized RNA/DNA level without ligand (log10) [1] | normalized RNA/DNA level with ligand (log10) [2] |
| --- | --- | --- |
| CCGGGG | 1.985 ± 0.01 | 2.01 ± 0.049 |
| CCGGGA | 2.039 ± 0.0033 | 2.02 ± 0.054 |
| UCGCGU | 2.033 ± 0.0037 | 2.04 ± 0.032 |
| UCGCGG | 2.067 ± 0.0045 | 2.084 ± 0.02 |
| UCGCGA | 2.0026 ± 0.0006 | 2.02 ± 0.068 |
| UCGCGC | 2.046 ± 0.014 | 2.03 ± 0.03 |
| ACGCUG | 2.015 ± 0.0048 | 2.057 ± 0.015 |
| ACGCUA | 2.013 ± 0.018 | 2.03 ± 0.06 |
| ACGCUC | 2.053 ± 0.015 | 2.05 ± 0.036 |
| CCGUCA | 2.04 ± 0.031 | 2.05 ± 0.038 |
| CCGUCC | 2.06 ± 0.021 | 2.06 ± 0.039 |
| CCGUCG | 2.02 ± 0.034 | 2.021 ± 0.015 |
| CCGUCU | 2.04 ± 0.0053 | 2.05 ± 0.061 |
| UCGGAC | 2.048 ± 0.0021 | 2.0514 ± 0.00022 |
| UCGUAU | 1.97 ± 0.029 | 2 ± 0.07 |
| UCGUAG | 1.8378 ± 0.0006 | 2 ± 0.052 |
| UCGGUC | 2.09 ± 0.025 | 2.06 ± 0.051 |
| UCGGUA | 1.93 ± 0.029 | 1.985 ± 0.015 |
